Series [1] concerns HeLa Kyoto. Nature of the series: thermal stability score vs G1/S (z-score of summed log2 fold changes over temperatures); higher = more thermally stable than in G1/S.
Series [2] relates to HeLa Kyoto. The experiment in a line: melting temperature (median over replicates), in situ; higher = more thermally stable.
In series [3] the test system is HeLa Kyoto. Nature of the series: solubility change mitosis vs G1/S (difference of NP-40 vs SDS log2 ratios) (log2 ratio difference); higher = more soluble in mitosis.
Series [4] relates to HeLa Kyoto. The experiment in a line: solubility in G1/S (NP-40 vs SDS abundance) (log2 ratio); higher = more soluble. The note with it: cell cycle stage: G1/S.
Where [5] appears, read: cell cycle stage: early G1 (4.5 h after nocodazole release).
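Wherever melting temperature (median over replicates), in situ is given: HeLa Kyoto cells synchronized by double thymidine or nocodazole block, proteins quantified by TMT10plex mass spectrometry, three independent biological replicates.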
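Wherever solubility change mitosis vs G1/S (difference of NP-40 vs SDS log2 ratios) is given: synchronized HeLa Kyoto cells (double thymidine block for G1/S, nocodazole release for mitosis), protein amounts in NP-40 versus SDS lysates quantified by mass spectrometry, three biological replicates.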
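Wherever solubility in G1/S (NP-40 vs SDS abundance) is given: HeLa Kyoto cells arrested at G1/S by double thymidine block, proteins quantified by TMT10plex mass spectrometry in mild NP-40 versus SDS extracts, three biological replicates.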
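Wherever thermal stability score vs G1/S (z-score of summed log2 fold changes over temperatures) is given: synchronized HeLa Kyoto cells, proteins quantified by TMT10plex mass spectrometry, three biological replicates, mitosis taken 0.5 h after nocodazole release, G1/S directly after double thymidine block.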

As to “MSGFSTEERAAPFSLEYRVFLKNEKGQYISPFHDIPIYADKDVFHMVVEVPRWSNAKMEIATKDPLNPIKQDVKKGKLRYVANLFPYKGYIWNYGAIPQTWEDPGHNDKHTGCCGDNDPIDVCEIGSKVCARGEIIGVKVLGILAMIDEGETDWKVIAINVDDPDAANYNDINDVKRLKPGYLEATVDWFRRYKVPDGKPENEFAFNAEFKDKDFAIDIIKSTHDHWKALVTKKTNGKGISCMNTTLSESPFKCDPDAARAIVDALPPPCESACTVPTDVDKWFHHQKN [PPA1]”, the thermal stability score in series [1] (setting [5]) was 0.184; in series [1] (cell cycle stage: mitosis), -1.97. Further, the melting temperature is 54.1 °C in series [2] (cell cycle stage: G1/S) and 54.2 °C in series [2] (cell cycle stage: mitosis). Besides, the “solubility change mitosis (log2)” value in series [3] turned out to be 0.0519. The “solubility in G1/S (log2)” value in series [4] amounted to 0.43.
For “MSGGKYVDSEGHLYTVPIREQGNIYKPNNKAMADELSEKQVYDAHTKEIDLVNRDPKHLNDDVVKIDFEDVIAEPEGTHSFDGIWKASFTTFTVTKYWFYRLLSALFGIPMALIWGIYFAILSFLHIWAVVPCIKSFLIEIQCISRVYSIYVHTVCDPLFEAVGKIFSNVRINLQKEI [CAV1]”, the thermal stability score in series [1] (setting [5]) was -2.45; in series [1] (cell cycle stage: mitosis), -3.05. The melting temperature was 57.3 °C in series [2] (cell cycle stage: G1/S) and 54.6 °C in series [2] (cell cycle stage: mitosis). Moreover, in series [3], the “solubility change mitosis (log2)” value was -0.0544. Moreover, the “solubility in G1/S (log2)” value in series [4] is -0.297.
With “MSGGSADYNREHGGPEGMDPDGVIESNWNEIVDNFDDMNLKESLLRGIYAYGFEKPSAIQQRAIIPCIKGYDVIAQAQSGTGKTATFAISILQQLEIEFKETQALVLAPTRELAQQIQKVILALGDYMGATCHACIGGTNVRNEMQKLQAEAPHIVVGTPGRVFDMLNRRYLSPKWIKMFVLDEADEMLSRGFKDQIYEIFQKLNTSIQVVLLSATMPTDVLEVTKKFMRDPIRILVKKEELTLEGIKQFYINVEREEWKLDTLCDLYETLTITQAVIFLNTRRKVDWLTEKMHARDFTVSALHGDMDQKERDVIMREFRSGSSRVLITTDLLARGIDVQQVSLVINYDLPTNRENYIHRIGRGGRFGRKGVAINFVTEEDKRILRDIETFYNTTVEEMPMNVADLI [EIF4A2]”, the thermal stability score in series [1] (setting [5]) is -0.202; in series [1] (cell cycle stage: mitosis) it was -1.09. In addition, the melting temperature was 52.1 °C in series [2] (cell cycle stage: G1/S) and 51.5 °C in series [2] (cell cycle stage: mitosis). The “solubility change mitosis (log2)” value in series [3] is -0.2. The “solubility in G1/S (log2)” value in series [4] worked out at 0.106.
With “MSGIKKQKTENQQKSTNVVYQAHHVSRNKRGQVVGTRGGFRGCTVWLTGLSGAGKTTISFALEEYLVSHAIPCYSLDGDNVRHGLNRNLGFSPGDREENIRRIAEVAKLFADAGLVCITSFISPFAKDRENARKIHESAGLPFFEIFVDAPLNICESRDVKGLYKRARAGEIKGFTGIDSDYEKPETPERVLKTNLSTVSDCVHQVVELLQEQNIVPYTIIKDIHELFVPENKLDHVRAEAETLPSLSITKLDLQWVQVLSEGWATPLKGFMREKEYLQVMHFDTLLDDGVINMSIPIVLPVSAEDKTRLEGCSKFVLAHGGRRVAILRDAEFYEHRKEERCSRVWGTTCTKHPHIKMVMESGDWLVGGDLQVLEKIRWNDGLDQYRLTPLELKQKCKEMNADAVFAFQLRNPVHNGHALLMQDTRRRLLERGYKHPVLLLHPLGGWTKDDDVPLDWRMKQHAAVLEEGVLDPKSTIVAIFPSPMLYAGPTEVQWHCRSRMIAGANFYIVGRDPAGMPHPETKKDLYEPTHGGKVLSMAPGLTSVEIIPFRVAAYNKAKKAMDFYDPARHNEFDFISGTRMRKLAREGENPPDGFMAPKAWKVLTDYYRSLEKN [PAPSS2]”, the thermal stability score came to 2.13 in series [1] (setting [5]) and 3.19 in series [1] (cell cycle stage: mitosis). The melting temperature is 52.2 °C in series [2] (cell cycle stage: G1/S) and 53.1 °C in series [2] (cell cycle stage: mitosis). For the same sequence, the “solubility change mitosis (log2)” value in series [3] is -0.108. In addition, in series [4], the “solubility in G1/S (log2)” value is -0.0222.
“MSGPTWLPPKQPEPARAPQGRAIPRGTPGPPPAHGAALQPHPRVNFCPLPSEQCYQAPGGPEDRGPAWVGSHGVLQHTQGLPADRGGLRPGSLDAEIDLLSSTLAELNGGRGHASRRPDRQAYEPPPPPAYRTGSLKPNPASPLPASPYGGPTPASYTTASTPAGPAFPVQVKVAQPVRGCGPPRRGASQASGPLPGPHFPLPGRGEVWGPGYRSQREPGPGAKEEAAGVSGPAGRGRGGEHGPQVPLSQPPEDELDRLTKKLVHDMNHPPSGEYFGQCGGCGEDVVGDGAGVVALDRVFHVGCFVCSTCRAQLRGQHFYAVERRAYCEGCYVATLEKCATCSQPILDRILRAMGKAYHPGCFTCVVCHRGLDGIPFTVDATSQIHCIEDFHRKFAPRCSVCGGAIMPEPGQEETVRIVALDRSFHIGCYKCEECGLLLSSEGECQGCYPLDGHILCKACSAWRIQELSATVTTDC [TRIP6]”: the thermal stability score in series [1] (setting [5]) is 0.24; in series [1] (cell cycle stage: mitosis), -0.443. Besides, the melting temperature in series [2] (cell cycle stage: G1/S) and in series [2] (cell cycle stage: mitosis) was 52 °C each time. The “solubility change mitosis (log2)” value in series [3] is -0.132. The “solubility in G1/S (log2)” value in series [4] was -0.106.
“MSGQRVDVKVVMLGKEYVGKTSLVERYVHDRFLVGPYQNTIGAAFVAKVMSVGDRTVTLGIWDTAGSERYEAMSRIYYRGAKAAIVCYDLTDSSSFERAKFWVKELRSLEEGCQIYLCGTKSDLLEEDRRRRRVDFHDVQDYADNIKAQLFETSSKTGQSVDELFQKVAEDYVSVAAFQVMTEDKGVDLGQKPNPYFYSCCHH [RAB24]”: the thermal stability score in series [1] (setting [5]) was -0.25; in series [1] (cell cycle stage: mitosis), -0.316. For the same sequence, the values for the melting temperature in series [2] (cell cycle stage: G1/S) and in series [2] (cell cycle stage: mitosis) were 53.8 °C and 54.2 °C, respectively. Further, in series [3], the “solubility change mitosis (log2)” value is -0.172. In addition, the “solubility in G1/S (log2)” value in series [4] was -0.101.
As for “MSGSMATAEASGSDGKGQEVETSVTYYRLEEVAKRNSLKELWLVIHGRVYDVTRFLNEHPGGEEVLLEQAGVDASESFEDVGHSSDAREMLKQYYIGDIHPSDLKPESGSKDPSKNDTCKSCWAYWILPIIGAVLLGFLYRYYTSESKSS [CYB5B]”, the thermal stability score is 1.14 in series [1] (setting [5]) and -0.285 in series [1] (cell cycle stage: mitosis). Also, the melting temperature in series [2] (cell cycle stage: G1/S) turned out to be 57.2 °C. The “solubility change mitosis (log2)” value in series [3] is 0.0898. In addition, in series [4], the “solubility in G1/S (log2)” value was -0.0447.

For the origin of these results see the supplement of paper PMC5998384.
